Test results as given in publication PMC12263834, “Structural basis of Fanconi anemia pathway activation by FANCM”.

B1: Hairpin15 (3' flap hairpin) (structured_DNA)
DNA: GGTATGAGCACTGCTTAGGCAGTGCTCATACCGCATGGAGCTG
B2: SA1/SA2 splayed duplex (dsDNA)
DNA 1: TACGCATCATCGCTCGGTTTT
DNA 2: TTTTCCGAGCGATGATGCGTA

Legend:
[1] = target: FANCE (FA core complex component, in cells) [human (endogenous in HCT116 or HEK293 cells)]; assay: co-immunoprecipitation (quantified Western blot); details: cell-based; n = 3 independent co-immunoprecipitation experiments; parent: 100; read off a plot
[2] = target: FANCA (FA core complex component, in cells) [human (endogenous in HCT116 or HEK293 cells)]; assay: co-immunoprecipitation (quantified Western blot); details: cell-based; n = 3 independent co-immunoprecipitation experiments; parent: 100; read off a plot
[3] = target: T1, FANCM translocase domain (8HIS-FANCM 73-644) (human, UniProt Q8IYD8 73-644); assay: crystal structure (2.2 A); 5 mM MgCl2 in protein buffer; Fluorescence anisotropy: 25 mM Tris-HCl pH 8, 20 mM NaCl, 2 mM MnCl2, 0.1 mg/ml BSA, temperature not stated; crystals N-terminal domain: 0.2 M NaCl, 0.1 M HEPES pH 7.0, 32.5% PEG 400, room temperature; CTD: 25% PEG3350, 0.1 M diammonium hydrogen phosphate; details: protein: recombinant; tags: 8xHis N-terminal; hairpin, 14 bp stem, TTAG loop, 11 nt 3' flap
T1 sequence: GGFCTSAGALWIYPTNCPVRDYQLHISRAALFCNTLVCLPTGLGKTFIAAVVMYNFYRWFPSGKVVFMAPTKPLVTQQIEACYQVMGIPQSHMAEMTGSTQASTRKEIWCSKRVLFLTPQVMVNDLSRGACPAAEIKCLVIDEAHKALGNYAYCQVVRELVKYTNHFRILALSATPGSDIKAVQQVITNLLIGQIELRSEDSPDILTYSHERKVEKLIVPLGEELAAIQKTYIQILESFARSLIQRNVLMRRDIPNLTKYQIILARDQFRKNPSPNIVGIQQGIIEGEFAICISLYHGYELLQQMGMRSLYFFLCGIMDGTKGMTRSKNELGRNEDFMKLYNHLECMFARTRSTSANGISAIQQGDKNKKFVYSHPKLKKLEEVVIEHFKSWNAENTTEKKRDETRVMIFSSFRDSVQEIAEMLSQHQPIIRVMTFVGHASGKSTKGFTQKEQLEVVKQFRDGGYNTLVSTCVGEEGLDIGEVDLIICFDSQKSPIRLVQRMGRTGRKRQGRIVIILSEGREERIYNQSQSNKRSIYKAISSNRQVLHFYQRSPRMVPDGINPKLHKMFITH

FANCM-CTD;FAAP24 = target: T2, FANCM-CTD;FAAP24 (human?;human?, UniProt Q8IYD8;Q9BTP7 1799-2048;1-215, |); assay: crystal structure (2.4 A); Mg2+ site in FAAP24; duplex contacted, splayed arms disordered; Fluorescence anisotropy: 25 mM Tris-HCl pH 8, 20 mM NaCl, 2 mM MnCl2, 0.1 mg/ml BSA, temperature not stated; crystals N-terminal domain: 0.2 M NaCl, 0.1 M HEPES pH 7.0, 32.5% PEG 400, room temperature; CTD: 25% PEG3350, 0.1 M diammonium hydrogen phosphate; details: protein: recombinant;recombinant; tags: GST (PreScission cleaved);HIS; copies: 1;1; 17 bp duplex with splayed arms: 3' TTTT on SA1 and 5' TTTT on SA2 at the same end
T2 sequence 1: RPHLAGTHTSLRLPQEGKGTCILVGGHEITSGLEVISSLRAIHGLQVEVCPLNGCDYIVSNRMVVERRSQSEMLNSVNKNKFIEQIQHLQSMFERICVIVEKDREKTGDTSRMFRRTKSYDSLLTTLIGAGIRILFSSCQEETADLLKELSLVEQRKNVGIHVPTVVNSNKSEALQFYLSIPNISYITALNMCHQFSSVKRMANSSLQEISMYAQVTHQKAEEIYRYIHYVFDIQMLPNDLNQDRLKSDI
T2 sequence 2: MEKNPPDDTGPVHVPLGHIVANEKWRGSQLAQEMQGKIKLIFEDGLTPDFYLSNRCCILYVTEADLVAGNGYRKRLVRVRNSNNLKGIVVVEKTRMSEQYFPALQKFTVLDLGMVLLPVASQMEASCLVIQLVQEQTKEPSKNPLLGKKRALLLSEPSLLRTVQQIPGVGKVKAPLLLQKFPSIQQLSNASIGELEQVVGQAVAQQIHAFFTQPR

| Molecule | percent of parent (% of wild-type FANCM) [1] | percent of parent (% of wild-type FANCM) [2] | also measured |
| --- | --- | --- | --- |
| Flag-FANCM-wildtype (expressed in cells) mutant V990A [human] / FANCE (FA core complex component, in cells) [human (endogenous in HCT116 or HEK293 cells)] chain 1 V990A | 27 | – | – |
| Flag-FANCM-wildtype (expressed in cells) mutant V990A [human] / FANCA (FA core complex component, in cells) [human (endogenous in HCT116 or HEK293 cells)] chain 1 V990A | – | 40 | – |
| Flag-FANCM-wildtype (expressed in cells) mutant P999L [human] / FANCE (FA core complex component, in cells) [human (endogenous in HCT116 or HEK293 cells)] chain 1 P999L | 10 | – | – |
| Flag-FANCM-wildtype (expressed in cells) mutant P999L [human] / FANCA (FA core complex component, in cells) [human (endogenous in HCT116 or HEK293 cells)] chain 1 P999L | – | 14 | – |
| B1 | – | – | binding result [3]: binds |
| B2 | – | – | binding result (FANCM-CTD;FAAP24): binds |
